± gives the standard deviation of the averaged measurements.

This series relates to ATP. Briefly: switch fluorescence ratio, 500 uM ATP over buffer (Cy3 cluster intensity, sum of 5 cycles each) (fold (ratio)); higher = stronger signal-on switching upon ATP binding; sequences stand for … in TCGTCGGCAGCGTCAGATGTGTATAAGAGACAGTTTTTTTTTTTTTTTTTTTTTTTTT…TC. The following applies: aptamer strand: ATP DNA aptamer (quencher-CACCTGGGGGAGTATTGCGGAGGAAGG + anchor), 100 nM annealed; ATP concentration: 500 uM. In short, it runs like this:
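Per cluster, summed Cy3 intensity from the target cycles was divided by that from the buffer cycles to give the fluorescence ratio, then averaged per switch-domain sequence. Clusters outside 100-1000 RFU were excluded. The Cy3-labelled switching-strand clusters, on a modified Illumina MiSeq flow-cell, were annealed to 100 nM quencher-labelled ATP aptamer and imaged in selection buffer, then after 15 min with 500 uM ATP at 22 °C, for five cycles with NaOH stripping and re-annealing between them.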
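Further: ATP exposure 15 min at 22 °C before imaging.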

Turning to TTGAGGGCCT, the switch fluorescence ratio came to 0.979 ± 0.021.
As to AGTTGATGGG, the switch fluorescence ratio turned out to be 0.978 ± 0.049.
The figure for AAATTTCGTT is 0.966 ± 0.016; for TCATTGTTTT it is 1.01 ± 0.019.
The figure for TTTGGTGTCT is 0.96 ± 0.025; for CAAGTTGTGT it is 0.9774 ± 0.0087.
The figure for CCGTGTTTTT is 0.988 ± 0.032.
In the case of GATGAGCCCT, the switch fluorescence ratio was found to be 1.03 ± 0.015.
The figure for TTATGAGGAC is 1.03 ± 0.056.
The figure for CGTTCTTCGC is 1.07 ± 0.094; for GTTGGGAGGC it is 1.064 ± 0.0014; for TTAATTGACA it is 1.064 ± 0.0092.
Turning to TTTATGGAGT, the switch fluorescence ratio worked out at 1.024 ± 0.0018.
As for ACGGGGACGG, the switch fluorescence ratio worked out at 1.03 ± 0.042.
Consider AATCGTTAAG, for which the switch fluorescence ratio was 0.97 ± 0.015.
Next, TTAGGATCGC: 1.02 ± 0.057; AGATAGGGGG: 1 ± 0.034; GGAGACCTTT: 1.03 ± 0.041.
Next, TTTTGATAGT: 0.991 ± 0.026.
The figure for AGTGGCACGG is 1 ± 0.029; for TGGGGCTTAT it is 0.987 ± 0.026.
TTTTAATCCA: the switch fluorescence ratio is 1.01 ± 0.033.
Next, ATGAAAAGGG: 1 ± 0.022.
Next, CCTGAGGTGT: 1.47 ± 0.18; ATTTTGAATC: 0.973 ± 0.013.
For GCTTGTCGGC, the switch fluorescence ratio came to 0.99 ± 0.035.
Next, CCTGGAGCTC: 1.35 ± 0.02.
Next, GGCCTGGGTT: 0.967 ± 0.0098; CTATCTGTAG: 0.994 ± 0.03; GAGTAATGTT: 1.02 ± 0.016.
In the case of TTCACGGGTC, the switch fluorescence ratio is 1.06 ± 0.06.
Next, GTTGTAGTTA: 1.01 ± 0.041; TTCGATTTGG: 1.03 ± 0.0072; GTGGCACCTA: 0.988 ± 0.018.
The figure for GCTGTGAGTT is 0.9821 ± 0.006; for AAATCGGCGG it is 0.991 ± 0.05.
For the sequence TATTGAGATG, the switch fluorescence ratio turned out to be 0.998 ± 0.046.
As for TGATTCAAAT, the switch fluorescence ratio was 1.02 ± 0.0087.
As for TAAGATTCGG, the switch fluorescence ratio is 0.968 ± 0.015.
In the case of TTTGGCGGAG, the switch fluorescence ratio stood at 0.992 ± 0.03.
In the case of TGAGAGTGGG, the switch fluorescence ratio turned out to be 1.01 ± 0.021.
The figure for CGCTTAGTGG is 1.03 ± 0.0027; for GTGAGAGGTG it is 1.05 ± 0.052.
For the sequence GCTTTCACGA, the switch fluorescence ratio amounted to 0.9879 ± 0.0036.
Take TTGTTGGTTG: the switch fluorescence ratio is 0.975 ± 0.034.
Next, CGCGGGGTGC: 1.06 ± 0.097; GTTATTCATG: 0.988 ± 0.018.
Consider TTTGATCAAG, for which the switch fluorescence ratio was found to be 1.021 ± 0.008.
Next, TGTGGCATTA: 0.992 ± 0.023.
Next, AAGGACGGCC: 0.998 ± 0.026; AGCAGTTGGG: 1.03 ± 0.065; GCCCGTTTTT: 1 ± 0.029.
Next, CAATGGGAG: 0.988 ± 0.014; GAGAATAGAG: 0.989 ± 0.022.
Turning to TAGGTGATTT, the switch fluorescence ratio is 1.03 ± 0.023.
The figure for GTTCGGCAGA is 1 ± 0.032; for AGTGCGGGTT it is 1.02 ± 0.025.
The figure for GTATGAATCG is 0.961 ± 0.056; for ACGAGAGGGT it is 0.973 ± 0.023.
The figure for AGTGTTGCGG is 0.952 ± 0.021.
Consider CATTTTCCGG, for which the switch fluorescence ratio stood at 1.11 ± 0.16.
As for AGGGTGAAAG, the switch fluorescence ratio was 0.992 ± 0.023.
Next, GGGGAGGGGA: 1.01 ± 0.04.
The figure for ACCCGGGGTT is 0.994 ± 0.013; for TGAAGACTGA it is 1 ± 0.012.
The figure for TTGCAATTTA is 1.06 ± 0.033; for GTCCGGGGTC it is 0.972 ± 0.065; for GCATAAGGTT it is 0.993 ± 0.031.
On to TTTTCTGAGG, for which the switch fluorescence ratio came to 1.01 ± 0.044.
Next, CCTTATGGCG: 0.996 ± 0.076; TTGGGGGGAG: 0.99 ± 0.027; TTTCAGCT: 0.977 ± 0.013.
Next, ATGGGTACTG: 0.963 ± 0.022; TCAGGGTTGT: 1.02 ± 0.031.
Next, ATAAGGTTTT: 0.985 ± 0.014; TAACAATATT: 0.99495 ± 0.00094; AGAAAAAAGG: 1.23 ± 0.42.
As to ATCTTCAGGT, the switch fluorescence ratio came out at 0.995 ± 0.0013.
For the sequence CAGGGGGCGT, the switch fluorescence ratio came out at 0.984 ± 0.0037.

Source of the values: the supplement of paper PMC10126150.
